The values that follow come from the Human Domainome abundance scans (Beltran et al. 2025).

± gives the uncertainty stated by the source.

Sequences and labels used below:
B1: Dynamin-binding protein, residues 242 to 304; numbered along this chain, Q6XZF7 (parent)
chain: EEPGTYGVALYRFQALEPNELDFEVGDKIRILATLEDGWLEGSLKGRTGIFPYRFVKLCPDTR

In the data set the parent is B1. The data set can be described thus: abundance fitness (aPCA) (normalised: wild type 0, dead -1); higher = more abundant; growth selection in yeast, the domain comes from the species named. Particulars: Homo sapiens.
For G7D, the abundance fitness is -0.857 ± 0.14.
As for A9K, the abundance fitness is -0.824 ± 0.26.
In the case of A9R it was -0.816 ± 0.11; in that of A9P, -0.752 ± 0.17.
In the case of A9E it was -0.73 ± 0.41.
Consider A9T, for which the abundance fitness is -0.623 ± 0.15.
Next, A9S: -0.566 ± 0.067; A9I: -0.737 ± 0.097; A9C: -0.771 ± 0.096.
Next, I31Q: -0.084 ± 0.2; I31E: -0.587 ± 0.27; I31Y: -0.91 ± 0.12.
For I31C, the abundance fitness was -0.527 ± 0.078.
In the case of I31R it was -0.883 ± 0.14; in that of I31M, -0.755 ± 0.23.
In the case of K45R it was -0.168 ± 0.071; in that of K45V, -0.728 ± 0.11.
For the variant K45A, the abundance fitness is -0.115 ± 0.077.
As to K45P, the abundance fitness was -0.429 ± 0.13.
Next, K45E: 0.013 ± 0.14.
In the case of K45N it was 0.037 ± 0.061; in that of D22Y, -0.108 ± 0.051; in that of D22N, -0.04 ± 0.052.
D22I: the abundance fitness is -0.913 ± 0.11.
Next, D22V: -0.682 ± 0.084.
Take D22C: the abundance fitness is -0.125 ± 0.052.
For D22K, the abundance fitness was -0.062 ± 0.16.
In the case of D22M it was -0.301 ± 0.13.
On to D22Q, for which the abundance fitness was found to be 0.148 ± 0.11.
Next, D61G: -0.063 ± 0.06.
Next, D61I: -0.237 ± 0.06; D61Q: -0.178 ± 0.14; D61C: -0.112 ± 0.058.
With K28P, the abundance fitness was -0.553 ± 0.18.
Regarding K28E, the abundance fitness was -0.157 ± 0.13.
K28H: the abundance fitness is -0.044 ± 0.087.
Next, K28M: -0.529 ± 0.19; A33K: 0.005 ± 0.12; A33F: -0.726 ± 0.11.
Next, A33N: 0.017 ± 0.058.
Turning to A33L, the abundance fitness is -0.644 ± 0.16.
A33M: the abundance fitness was -0.438 ± 0.24.
Turning to E20V, the abundance fitness was -0.703 ± 0.086.
In the case of E20Q it was 0.069 ± 0.12; in that of E20M, 0.023 ± 0.11.
In the case of L32N it was -0.097 ± 0.055; in that of L32Q, -0.243 ± 0.14.
Next, L32V: -0.176 ± 0.051.
Turning to L32Y, the abundance fitness was -0.744 ± 0.11.
Next, L32I: -0.19 ± 0.06.
Consider L32P, for which the abundance fitness was -0.687 ± 0.15.
On to Y53V, for which the abundance fitness stood at 0.263 ± 0.052.
Next, Y53S: 0.329 ± 0.044; Y53T: 0.223 ± 0.065.
Next, Y53W: 0.108 ± 0.25; Y53F: -0.079 ± 0.067; Y53E: 0.282 ± 0.17.
Next, Y53N: 0.138 ± 0.068.
As for T5Q, the abundance fitness is 0 ± 0.16.
In the case of T5G it was -0.765 ± 0.093; in that of T5C, -0.143 ± 0.059; in that of T5A, -0.083 ± 0.066.
In the case of T5F it was -0.057 ± 0.058; in that of T5I, -0.183 ± 0.065; in that of E24D, 0.009 ± 0.055.
Take E24P: the abundance fitness is -0.75 ± 0.14.
Next, E24Y: -0.423 ± 0.079; E24H: -0.199 ± 0.075.
Consider R63M, for which the abundance fitness was found to be 0.049 ± 0.14.
On to R63D, for which the abundance fitness came out at 0.125 ± 0.087.
On to R63H, for which the abundance fitness was found to be 0.065 ± 0.063.
In the case of R63T, the abundance fitness was 0.186 ± 0.056.
R63E: the abundance fitness was -0.455 ± 0.29.
As for R63Q, the abundance fitness was -0.184 ± 0.19.
Next, K57C: -0.406 ± 0.054; K57S: -0.088 ± 0.038; K57D: -0.257 ± 0.055.
In the case of K57Y it was -0.411 ± 0.059; in that of K57I, -0.576 ± 0.071; in that of K57E, -0.6 ± 0.23.
Turning to K57G, the abundance fitness is -0.58 ± 0.072.
In the case of K57F it was -0.697 ± 0.081.
Next, K57H: -0.136 ± 0.057.
With G49I, the abundance fitness is -0.59 ± 0.12.
In the case of G49W it was -0.601 ± 0.35; in that of G49D, -0.574 ± 0.11; in that of V56L, -0.412 ± 0.093.
As to V56D, the abundance fitness was -0.716 ± 0.099.
On to V56R, for which the abundance fitness is -0.887 ± 0.14.
Next, V56Q: -0.664 ± 0.22.
On to V56F, for which the abundance fitness was -0.525 ± 0.07.
Next, V56P: -0.334 ± 0.14.
As for L16Q, the abundance fitness was determined as 0.284 ± 0.12.
Take L16N: the abundance fitness turned out to be 0.35 ± 0.054.
Take L16H: the abundance fitness is 0.141 ± 0.074.
Regarding L16R, the abundance fitness stood at 0.316 ± 0.058.
In the case of L16P, the abundance fitness is -0.697 ± 0.22.
As to L16S, the abundance fitness amounted to 0.29 ± 0.048.
Next, L16M: 0.242 ± 0.12; L16E: -0.027 ± 0.22.
As to L16T, the abundance fitness is 0.344 ± 0.062.
For the variant D37Q, the abundance fitness was -0.298 ± 0.17.
In the case of D37K it was -0.287 ± 0.25.
In the case of D37R it was -0.59 ± 0.092; in that of D37G, -0.073 ± 0.054.
Consider D37S, for which the abundance fitness is -0.257 ± 0.057.
In the case of D37T it was -0.361 ± 0.099; in that of D37H, -0.274 ± 0.078.
Consider P18R, for which the abundance fitness was -0.04 ± 0.053.
Next, Q14S: -0.321 ± 0.056; Q14R: -0.2 ± 0.061.
Next, Q14D: -0.264 ± 0.064.
Turning to Q14L, the abundance fitness is -0.265 ± 0.07.
Turning to Q14V, the abundance fitness was -0.115 ± 0.054.
In the case of Q14K it was -0.205 ± 0.13; in that of Q14G, -0.696 ± 0.077.
In the case of Q14H it was -0.032 ± 0.074; in that of A15F, -0.982 ± 0.15.
For the variant A15E, the abundance fitness is -0.734 ± 0.26.
As for A15C, the abundance fitness was -0.617 ± 0.076.
Next, A15G: 0.019 ± 0.055; E41I: -0.465 ± 0.08.
On to E41M, for which the abundance fitness worked out at 0.073 ± 0.2.
Next, E41G: -0.76 ± 0.11.
In the case of E41Y it was -0.274 ± 0.072; in that of E41D, -0.732 ± 0.14; in that of R12Y, -0.834 ± 0.12.
Next, R12P: -0.126 ± 0.1.
In the case of R12L, the abundance fitness was -0.637 ± 0.093.
Next, R12T: -0.237 ± 0.085; Y11R: 0.206 ± 0.058; Y11I: -0.14 ± 0.055.
In the case of Y11P, the abundance fitness is -0.784 ± 0.16.
As for S43A, the abundance fitness was -0.106 ± 0.058.
In the case of S43I it was -0.539 ± 0.082; in that of S43Q, -0.133 ± 0.16.
Next, S43E: 0.219 ± 0.14.
In the case of E2A, the abundance fitness was -0.586 ± 0.099.
Next, E2Y: 0.015 ± 0.056; E2I: -0.013 ± 0.072; E2T: -0.024 ± 0.076.
Next, E2M: -0.049 ± 0.15; E2D: -0.151 ± 0.066.
In the case of E2N, the abundance fitness amounted to 0.016 ± 0.068.
Next, R54D: -0.052 ± 0.057.
Next, R54G: -0.034 ± 0.046; R54L: -0.544 ± 0.091.
Next, R54H: 0.027 ± 0.064; R54I: -0.545 ± 0.13; E1T: -0.111 ± 0.1.
E1D: the abundance fitness was -0.369 ± 0.081.
In the case of E1H it was -0.8 ± 0.18; in that of E1L, -0.041 ± 0.087; in that of G46E, -0.473 ± 0.12.
Next, G46Y: -0.802 ± 0.065; G46K: -0.757 ± 0.28; G46N: -0.326 ± 0.048.
Turning to G46M, the abundance fitness is -0.769 ± 0.17.
Regarding G46R, the abundance fitness was -0.612 ± 0.05.
Take L44M: the abundance fitness was -0.58 ± 0.28.
For L44Y, the abundance fitness was -0.393 ± 0.088.
Consider V8D, for which the abundance fitness is -0.717 ± 0.15.
For the variant V8K, the abundance fitness was -0.427 ± 0.17.
Next, V8I: 0.064 ± 0.061; V8G: -0.779 ± 0.092; V8L: -0.192 ± 0.069.
With V8Y, the abundance fitness was -0.028 ± 0.066.
